The target in assay [1] is catalytic domain of AMSH, AMSH 219-424 E280A (human) (UniProt O95630). Put plainly: AUC.
For assay [2] the target is unchanged. In words: ITC. Background: Isothermal titration calorimetry measures the heat released or taken up as one component is titrated into another.
A further assay addresses ubiquitin (Homo sapiens) (UniProt P0CG48). Put plainly: biosensor. The following applies: cited from earlier work.

Chain of catalytic domain of AMSH, AMSH 219-424 E280A (human) (O95630 219-424 E280A): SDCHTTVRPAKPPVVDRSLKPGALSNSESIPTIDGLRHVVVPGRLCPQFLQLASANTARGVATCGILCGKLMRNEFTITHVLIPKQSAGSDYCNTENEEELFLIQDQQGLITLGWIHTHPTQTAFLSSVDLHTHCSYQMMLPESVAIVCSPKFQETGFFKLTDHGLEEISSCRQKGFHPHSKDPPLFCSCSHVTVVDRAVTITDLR
Chain of STAM UIM (Q92783 168-193): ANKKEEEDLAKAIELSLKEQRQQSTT

In general, stoichiometry N refers to the number of molecules, sites or subunits per partner or assembly. The term Kd denotes the constant that tells how readily two partners part at equilibrium. Turning to “SH3 domain of STAM2 (from UniProt O75886 202-261) (domain or fragment)”, in assay [1], the stoichiometry N stood at 1. In assay [2], the Kd came to 1.4 µM and the dH was -15.1 kcal/mol.
STAM UIM (from UniProt Q92783): in the assay with ubiquitin (Homo sapiens), the Kd is 182 µM.
